Data: patent US20130149300A1 (ICON GENETICS, published 2013)

B1: Anti-Ebola virus produced in -XF plants (antibody)
heavy: not shown
light: QLVLTQSSSASASLGASVKLTCTLSRQHSTYTIEWYQQQPAKPPRYVMELKKDGSHSTGDGIPDRFSGSSSGADRYLTISSLQSEDEADYYCGVGDTIKEQFVYVFGTGTKVTVLGQPKAAPSVTLFPPSSEELQANKATLVCLISDFYPGAVTVAWKADSSPVKAGVETTTPSKQSNNKYAASSYLSLTPEQWKSHRSYSCQVTHEGSTVEKTVAPTECS
B2: Anti-Ebola virus produced in -XF +gal plants (antibody)
heavy: not shown
light: B1 light
B3: Anti-Ebola virus produced in wild type plants (antibody)
heavy: not shown
light: B1 light

Biological target: human C1q (human, UniProt P02745 23-245; P02746 28-253; P02747 29-245)
Assay: C1q binding ELISA, mAb coated at 2.5 µg/ml, human C1q added

human C1q, sequence (P02745 23-245 limits assumed, chain 1 of 3): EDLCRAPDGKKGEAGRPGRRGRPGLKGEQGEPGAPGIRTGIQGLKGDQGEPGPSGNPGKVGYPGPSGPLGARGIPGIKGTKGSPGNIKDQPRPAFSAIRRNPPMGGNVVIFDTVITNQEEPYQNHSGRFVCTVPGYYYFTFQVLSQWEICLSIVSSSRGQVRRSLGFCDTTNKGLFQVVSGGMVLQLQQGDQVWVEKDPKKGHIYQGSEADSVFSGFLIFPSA
human C1q, sequence (P02746 28-253 limits assumed, chain 2 of 3): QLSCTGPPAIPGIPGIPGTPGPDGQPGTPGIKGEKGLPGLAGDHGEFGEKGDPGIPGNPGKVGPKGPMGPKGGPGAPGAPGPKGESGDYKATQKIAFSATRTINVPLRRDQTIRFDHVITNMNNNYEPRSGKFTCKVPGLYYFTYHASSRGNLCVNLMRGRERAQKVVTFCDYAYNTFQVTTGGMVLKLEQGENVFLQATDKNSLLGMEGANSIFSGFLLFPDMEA
human C1q, sequence (P02747 29-245 limits assumed, chain 3 of 3): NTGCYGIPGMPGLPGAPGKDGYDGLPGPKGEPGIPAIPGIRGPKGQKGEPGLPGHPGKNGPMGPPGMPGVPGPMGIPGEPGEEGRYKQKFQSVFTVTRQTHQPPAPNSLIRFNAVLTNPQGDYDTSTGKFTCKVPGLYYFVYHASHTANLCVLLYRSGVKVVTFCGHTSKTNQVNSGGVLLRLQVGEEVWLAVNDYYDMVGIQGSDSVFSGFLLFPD

| Binder | Absorbance |
| --- | --- |
| B1 | 0.49 absorbance at 450 nm |
| B2 | 0.96 absorbance at 450 nm |
| B3 | 0.92 absorbance at 450 nm |

Biological target: T1, Recombinant human FcγRI (human, UniProt P12314 16-288)
T1 construct: also called FcγRI (CD64); CD64
Assay: SPR (Biacore), receptor amine-coupled to CM5 chip, mAb flowed, 1:1 fit

T1 sequence (P12314 16-288 limits assumed): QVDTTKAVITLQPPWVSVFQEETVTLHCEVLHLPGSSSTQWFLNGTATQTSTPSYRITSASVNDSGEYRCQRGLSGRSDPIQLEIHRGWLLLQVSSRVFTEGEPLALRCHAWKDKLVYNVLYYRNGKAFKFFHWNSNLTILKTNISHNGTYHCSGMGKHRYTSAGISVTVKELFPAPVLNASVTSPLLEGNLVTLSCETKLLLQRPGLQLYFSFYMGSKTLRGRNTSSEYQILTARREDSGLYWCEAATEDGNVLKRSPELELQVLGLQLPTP

| Binder | Kd |
| --- | --- |
| B1 | 16 nM |
| B2 | 15 nM |
| B3 | 42 nM |

Biological target: T2, Recombinant human FcγRIIIA (human, UniProt P08637 17-208)
T2 construct: also called FcγRIIIA (CD16); CD16
Assay: as above

T2 sequence (P08637 17-208 limits assumed): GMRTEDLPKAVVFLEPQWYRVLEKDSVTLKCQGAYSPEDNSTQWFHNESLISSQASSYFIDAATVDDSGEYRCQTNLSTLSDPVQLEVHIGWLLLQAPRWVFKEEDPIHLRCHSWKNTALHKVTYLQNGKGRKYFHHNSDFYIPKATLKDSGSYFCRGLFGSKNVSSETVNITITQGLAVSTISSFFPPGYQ

| Binder | Kd |
| --- | --- |
| B1 | 25 nM |
| B2 | 26 nM |
| B3 | 72 nM |
